# pKd: −log10 of the molar value. Several values for one entry are separate records, joined by “and”; a condition that tells them apart may be missing. Equal values may be shown once. Read-outs that look alike come from different tables or passages of the source.
# Tests used:
# Test in all cases: mass photometry
# [1] = molecular target: deglycosylated trastuzumab
# [2] = molecular target: trastuzumab (Herceptin®), immunoglobulin G (IgG) monoclonal antibody
# [3] = molecular target: deglycosylated trastuzumab; remark: listed apart in the source
# [4] = molecular target: trastuzumab (Herceptin®), immunoglobulin G (IgG) monoclonal antibody; remark: listed apart in the source
# [5] = molecular target: deglycosylated trastuzumab; remark: listed apart in the source
# [6] = molecular target: recombinant human FcRN (His and Avi tagged), neonatal Fc receptor (human) (UniProt P55899)
# [7] = molecular target: trastuzumab (Herceptin®), immunoglobulin G (IgG) monoclonal antibody; remark: listed apart in the source
# [8] = molecular target: recombinant human FcRN (His and Avi tagged), neonatal Fc receptor (human) (UniProt P55899); remark: listed apart in the source
# [9] = molecular target: trastuzumab (Herceptin®), immunoglobulin G (IgG) monoclonal antibody; remark: listed apart in the source
# [10] = molecular target: recombinant human FcRN (His and Avi tagged), neonatal Fc receptor (human) (UniProt P55899); remark: listed apart in the source
# [11] = molecular target: recombinant human FcRN (His and Avi tagged), neonatal Fc receptor (human) (UniProt P55899); remark: listed apart in the source
substance,measurement,setting,value
"FcγRIa (CD64 human recombinant, His Tag) (from UniProt P12314) (receptor)",pKd,[1],9.00
same,percent bound antibody,[1],50%
same,pKd,[2],10.30
same,percent complex formation,[2],90%
same,pKd,[3],8.96
same,koff,[3],0.0068 s⁻¹
same,kon,[3],6e+06 M⁻¹ s⁻¹
same,pKd,[4],10.59
same,koff,[4],0.00052 s⁻¹
same,kon,[4],1.9e+07 M⁻¹ s⁻¹
same,pKd,[5],9.22 and 9.15
"recombinant human FcRN (His and Avi tagged), neonatal Fc receptor (from UniProt P55899)",pKd,[6],7.51
same,stoichiometry N,[6],2
same,pKd,[2],< 6.70
same,pKd,[7],< 6.70
same,pKd,[8],7.36 and 6.77
same,Kd of IgG plus two FcRns (second FcRn),[9],6.6 nM and 3.9 nM
same,Kd of IgG-FcRn monomer (first FcRn),[9],59 nM and 225 nM
same,stoichiometry N,[9],2
same,pKd,[10],< 6.70
same,pKd,[11],< 6.70

# From doi:10.1101/2020.01.31.925156
